Source: paper PMC10318062 (Nature Communications, 2023)
Read-outs that look alike come from different tables or passages of the source.

How the values were obtained:
[1] = target: T1, SARS-CoV-2 Receptor Binding Domain (RBD) (SARS-CoV-2, UniProt P0DTC2); test: AlphaScreen or HTRF; settings: one partner purified
[2] = target: SARS-CoV-2 hexaproline stabilized pre-fusion spike glycoprotein (S6P) (SARS-CoV-2, ancestral (Wuhan-Hu-1 …, UniProt P0DTC2, stabilised))
[3] = target: T1, SARS-CoV-2 Receptor Binding Domain (RBD)
HCoV-OC43 S = HCoV-OC43 S (HCoV-OC43, strain ; reference …, UniProt P36334); test: AlphaScreen or HTRF; settings: one partner purified
Sequence of HCoV-OC43 S (P36334 14-1353): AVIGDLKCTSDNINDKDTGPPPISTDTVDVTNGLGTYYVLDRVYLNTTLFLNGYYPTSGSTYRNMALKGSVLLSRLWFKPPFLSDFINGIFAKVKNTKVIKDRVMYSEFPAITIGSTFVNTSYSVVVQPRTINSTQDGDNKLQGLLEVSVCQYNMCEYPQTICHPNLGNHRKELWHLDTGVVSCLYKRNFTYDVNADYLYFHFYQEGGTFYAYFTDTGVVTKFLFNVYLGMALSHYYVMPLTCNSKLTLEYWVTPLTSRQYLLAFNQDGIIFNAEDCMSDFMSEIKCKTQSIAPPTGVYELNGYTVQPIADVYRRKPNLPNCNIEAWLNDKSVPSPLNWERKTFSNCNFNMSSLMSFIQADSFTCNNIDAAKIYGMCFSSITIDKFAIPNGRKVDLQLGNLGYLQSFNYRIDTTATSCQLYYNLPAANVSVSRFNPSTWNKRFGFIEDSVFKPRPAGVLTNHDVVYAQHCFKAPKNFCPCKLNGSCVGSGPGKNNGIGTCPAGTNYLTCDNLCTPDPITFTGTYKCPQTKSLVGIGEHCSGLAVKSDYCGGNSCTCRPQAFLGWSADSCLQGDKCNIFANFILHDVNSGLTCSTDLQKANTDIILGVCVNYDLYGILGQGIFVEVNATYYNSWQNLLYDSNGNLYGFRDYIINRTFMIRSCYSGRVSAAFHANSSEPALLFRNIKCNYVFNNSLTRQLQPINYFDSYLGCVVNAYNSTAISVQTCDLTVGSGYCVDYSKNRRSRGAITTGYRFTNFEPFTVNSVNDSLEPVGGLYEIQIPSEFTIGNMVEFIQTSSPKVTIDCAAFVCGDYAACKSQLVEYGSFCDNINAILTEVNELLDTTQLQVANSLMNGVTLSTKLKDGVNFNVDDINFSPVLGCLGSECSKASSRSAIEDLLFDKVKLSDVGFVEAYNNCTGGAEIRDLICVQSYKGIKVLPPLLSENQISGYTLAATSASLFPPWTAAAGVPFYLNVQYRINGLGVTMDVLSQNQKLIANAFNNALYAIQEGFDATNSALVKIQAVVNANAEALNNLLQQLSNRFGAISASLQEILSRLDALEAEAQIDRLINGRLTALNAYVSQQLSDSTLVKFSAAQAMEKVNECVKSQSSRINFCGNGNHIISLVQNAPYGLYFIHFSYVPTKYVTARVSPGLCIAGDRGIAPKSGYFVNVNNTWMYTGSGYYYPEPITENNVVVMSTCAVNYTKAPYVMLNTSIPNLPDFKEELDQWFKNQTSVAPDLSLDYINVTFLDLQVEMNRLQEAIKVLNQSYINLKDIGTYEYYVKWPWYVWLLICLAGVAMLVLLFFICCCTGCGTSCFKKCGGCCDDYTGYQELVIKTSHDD

B1: LY-CoV1404 (sdFab) (Fab, V domains shown)
VH: QITLKESGPTLVKPTQTLTLTCTFSGFSLSISGVGVGWLRQPPGKALEWLALIYWDDDKRYSPSLKSRLTISKDTSKNQVVLKMTNIDPVDTATYYCAHHSISTIFDHWGQGTLVTVSS
VL: QSALTQPASVSGSPGQSITISCTATSSDVGDYNYVSWYQQHPGKAPKLMIFEVSDRPSGISNRFSGSKSGNTASLTISGLQAEDEADYYCSSYTTSSAVFGGGTKLTVL
B1: binds [1].

B2: COVA2-16 (antibody, V domains shown)
VH: QVQLVQSGAEVKKPGATVKISCKVSGYTFTDYYMHWVQQAPGKGLEWMGLVDPEDGETIYAEKFQGRVTITADTSTDTAYMELSSLRSEDTAVYYCASSDSSGFVGSRGFDYWGQGTRVTVSS
VL: DIQLTQSPSSLSASVGDRVTITCRASQGIRNDLGWYQQKPGKAPKRLIYAASSLQSGVPSRFSGSGSGTEFTLTISSLQPEDFATYYCLQHNSYPPLFGQGTKVEIK
B2: binds [2]; binds [3].

B3: COVA2-20 (antibody, V domains shown)
VH: EVQLVESGGGLIQPGGSLRLSCAASGFTVSSNYMSWVRQAPGKGLEWVSVIYSGGSTYYADSVKGRFTISRDNSKNTLYLQMNSLRAEDTAVYYCASPLLLTPPDYYYYMDVWGKGTMVTVSS
VL: DVVMTQSPSSLSVSVGDRVTITCRASQGIRNDLGWYQQKPGKAPKRLIYAASSLQSGVPSRFSGSGSGTEFTLTISSLQPEDFATYYCLQHNSYLWTFGQGTKLEIK
B3: binds [2]; binds [3].

B4: REGN10987 (sdFab) (Fab, V domains shown)
VH: QVQLVESGGGVVQPGRSLRLSCAASGFTFSNYAMYWVRQAPGKGLEWVAVISYDGSNKYYADSVKGRFTISRDNSKNTLYLQMNSLRTEDTAVYYCASGSDYGDYLLVYWGQGTLVTVSS
VL: QSALTQPASVSGSPGQSITISCTGTSSDVGGYNYVSWYQQHPGKAPKLMIYDVSKRPSGVSNRFSGSKSGNTASLTISGLQSEDEADYYCNSLTSISTWVFGGGTKLTVL
B4: binds [1].

B5: S2P6 (sdFab) (Fab, V domains shown)
VH: EVQLVQSGAEVKKPGASVKVSCKASGYTFTSQYMHWVRQAPGQGLEWIGIINPSGVHTSYAQKFQGRVTLTRDTSTSTLYMELSSLRSEDTAVYYCARGSPKGAFDYWGQGTLVTVSS
VL: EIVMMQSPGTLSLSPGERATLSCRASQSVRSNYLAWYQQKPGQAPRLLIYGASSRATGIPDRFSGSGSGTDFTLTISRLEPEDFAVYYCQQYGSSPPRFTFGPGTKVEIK
B5: binds (HCoV-OC43 S).

B6: COVA2-15 (antibody, V domains shown)
VH: QVQLLESGGGLVQPGGSLRLSCAASGFTFSSYAMSWVRQAPGKGLEWASAISGSGGSTYYADSVEGRFTISRDNSKNTLYLQMNSLRAEDTAVYYCAKDTGYCGDDCYIKLIRGGPDYWGQGTLVTVSS
VL: DIVMTQSPLSLPVTLGQPASISCRSSQSLVYSDGNTFLNWFQQRPGQSPRRLIYQVSNRDSGVPDRFSGSGSGTDFTLKISRVEAEDVGVYYCMQGTHWPRTFGQGTKLEIK
B6: binds [2]; binds [3].

B7: COVA1-16 (antibody, V domains shown)
VH: QVQLVQSGAEVKKPGASVKVSCKASGYTFTSYYMHWVRQAPGQGLEWMGIINSSGGSTSYAQKFQGRVTMTRDTSTSTVYMELSSLRSEDTAVYYCARPPRNYYDRSGYYQRAEYFQHWGQGTLVTVSS
VL: DIQLTQSPSSLSASVGDRVTITCQASQDISNYLNWYQQRPGKAPKLLIYDASNLETGVPSRFSGSGSGTDFTFTISSLQPEDIATYYCQQYDNPPLTFGGGTKLEIK
B7: binds [2]; binds [3].

B8: REGN10933 (sdFab) (Fab, V domains shown)
VH: QVQLVESGGGLVKPGGSLRLSCAASGFTFSDYYMSWIRQAPGKGLEWVSYITYSGSTIYYADSVKGRFTISRDNAKSSLYLQMNSLRAEDTAVYYCARDRGTTMVPFDYWGQGTLVTVSS
VL: DIQMTQSPSSLSASVGDRVTITCQASQDITNYLNWYQQKPGKAPKLLIYAASNLETGVPSRFSGSGSGTDFTFTISGLQPEDIATYYCQQYDNLPLTFGGGTKVEIK
B8: binds [1].

B9: COVA2-17 (antibody, V domains shown)
VH: QVQLVESGAEVKKPGSSVKVSCKASGGTFSSYGINWVRQAPGQGLEWMGGIIPIFGTANYAQKFQGRVTITTDESTSTAYMELSSLRSEDTAVYYCASFGDDSGDEGVRWGQGTLVTVSS
VL: EIVMTQSPATLSLSPGERATLSCRASQSVSSYLAWYQQKPGQAPRLLIYDASNRATGIPARFSGSGSGTDFTLTISSLEPEDFAVYYCQQRSNWPPYTFGQGTKVEIK
B9: binds [2]; binds [3].

B10: CB6 (sdFab) (Fab, V domains shown)
VH: EVQLVESGGGLVQPGGSLRLSCAASGFTVSSNYMSWVRQAPGKGLEWVSVIYSGGSTFYADSVKGRFTISRDNSMNTLFLQMNSLRAEDTAVYYCARVLPMYGDYLDYWGQGTLVTVSS
VL: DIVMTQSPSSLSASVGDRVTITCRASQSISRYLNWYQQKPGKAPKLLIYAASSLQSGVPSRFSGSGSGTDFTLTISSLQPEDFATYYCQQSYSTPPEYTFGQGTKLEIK
B10: binds [1].

B11: LY-CoV555 (sdFab) (Fab, V domains shown)
VH: QVQLVQSGAEVKKPGSSVKVSCKASGGTFSNYAISWVRQAPGQGLEWMGRIIPILGIANYAQKFQGRVTITADKSTSTAYMELSSLRSEDTAVYYCARGYYEARHYYYYYAMDVWGQGTAVTVSS
VL: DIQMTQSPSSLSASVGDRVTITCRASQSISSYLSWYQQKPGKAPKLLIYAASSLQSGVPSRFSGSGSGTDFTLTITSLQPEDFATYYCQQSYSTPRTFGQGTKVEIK
B11: binds [1].

B12: COVA2-02 (antibody, V domains shown)
VH: VQLQQESGPGLVKPSETLSLTCTVSGGSISSSSYYWGWIRQPPGKGLEWIGSIYYSGSTYYNPSLKSRVTISVDTSKNQFSLKLSSVTAADTAVYYCARRSTSRWGYYYMDVWGKGTRVTVSS
VL: DIVMTQSPSSLSASVGDRVTITCRASQSISNYLNWYQQKPGKAPKLLLYAASDLQSGVPSRFSGSGSGTDFTLTISSLQPEDFATYYCQQSYSTHMSTFGQGTKVDIK
B12: binds [2]; binds [3].

B13: AZD8895 (sdFab) (Fab, V domains shown)
VH: EVQLVQSGPEVKKPGTSVKVSCKASGFTFMSSAVQWVRQARGQRLEWIGWIVIGSGNTNYAQKFQERVTITRDMSTSTAYMELSSLRSEDTAVYYCAAPYCSSISCNDGFDIWGQGTMVTVSS
VL: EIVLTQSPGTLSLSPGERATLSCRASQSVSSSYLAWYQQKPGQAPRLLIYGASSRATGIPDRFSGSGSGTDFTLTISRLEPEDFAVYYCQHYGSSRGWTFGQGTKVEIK
B13: binds [1].
